This is an account of results in patent publication US5547843.

The subject of this data set is E. coli single-stranded DNA-binding protein (SSB) (Escherichia coli). The following applies: saturating ratio inferred from priming titration (mass ratio SSB:DNA about 2.5); 40 mM Tris-Cl pH 7.5, 50 mM NaCl, 10 mM MgCl2, 0 C; indirect functional ….

With M13 single-stranded viral DNA, the binding (nt per SSB monomer) stood at 22.
